# Test results: FireProtDB
# Values joined by “and” are separate entries in the source; they are usually repeats but may differ in a detail not shown here. Equal entries are not always repeated.
# Conditions: whole UniProt chain shown
# [1] = Comamonas testosteroni, pH 7, 25 °C, Urea, Fluorescence, phosphate 25 mM, reversible: yes
# [2] = Bos taurus, pH 7, Thermal, DSC, Potassium phosphate 67 mM, MgCl2 1 mM
# [3] = Bos taurus, pH 6.7, Thermal, DSC, phosphate 10 mM, MgCl2 0.5 mM, reversible: No
# [4] = Bos taurus, pH 2, 35 °C, Urea, NMR, Unknown, reversible: no
# [5] = Bos taurus, pH 2.2, 25 °C, GdnHCl, CD, Sodium cacodylate 50 mM, NaCl 50 mM
# [6] = Bos taurus, pH 3, Thermal, DSC, Tris-HCl 10 mM
# [7] = Bos taurus, pH 4.2, Thermal, DSC, Tris-HCl 10 mM
# [8] = Bos taurus, pH 5.2, Thermal, DSC, Tris-HCl 10 mM
# [9] = Bos taurus, pH 6.2, Thermal, DSC, citrate 10 mM
# [10] = Bos taurus, pH 6.3, 25 °C, GdnHCl, CD, Sodium acetate 100 mM, CaCl2 2 mM, transition: 3
# [11] = Bos taurus, pH 6.3, 25 °C, GdnHCl, CD, Sodium acetate 100 mM, CaCl2 2 mM
# [12] = Bos taurus, pH 6.3, 25 °C, Thermal, CD, imidazole-HCl 40 mM
# [13] = Bos taurus, pH 7, 4.5 °C, GdnHCl, CD, cacodylate 50 mM, NaCl 0.1 M
# [14] = Bos taurus, pH 7, 25 °C, GdnHCl, CD, sodium cacodylate 50 mM, NaCl 50 mM
# [15] = Bos taurus, pH 7, Thermal, CD, C2H6AsNaO2 50 mM, NaCl 50 mM
# [16] = Bos taurus, pH 7.5, Thermal, DSC, Tris-HCl 10 mM, CaCl2 260 micro M
# [17] = Bos taurus, pH 8, 25 °C, GdnHCl, CD, Tris-HCl 20 mM
# [18] = Bos taurus, pH 8, 25 °C, Thermal, CD, borate 10 mM, NaCl 0.01-1.0 M
# [19] = Bos taurus, pH 8, 25 °C, Thermal, DSC, Tris-HCl 10 mM, reversible: yes
# [20] = Bos taurus, pH 8, Thermal, DSC, Tris-HCl 5 mM
# [21] = Bos taurus, pH 8, Thermal, DSC, Tris-HCl 10mM, reversible: yes
# [22] = Bos taurus, pH 8, Thermal, DSC, borate 10 mM, NaCl 0.2 M, reversible: yes (>95%)
# [23] = Bos taurus, pH 7.2, Thermal, DSC, phosphate 20 mM, reversible: yes (partial)
# [24] = Bos taurus, pH 7.4, Thermal, DSC, potassium phosphate 20 mM, reversible: Yes (65%)
# [25] = Bacillus subtilis (strain 168), pH 7, Thermal, CD, Potassium phosphate 50 mM, reversible: yes
# [26] = Bos taurus, pH 6, Thermal, DSC, Sodium phosphate 50 mM, NaCl 200 mM, reversible: yes
protein,measurement,setting,value
"wild type, B8YLY0 (protein) MKKVLMAFIICLSLILSVLAAPPSGAKAESVHNPVVLVHGISGASYNFFAIKNYLISQGWQSNKLYAIDFYDKTGNNLNNGPQLASYVDRVLKETGAKKVDIVAHSMGGANTLYYIKYLGGGNKIQNVVTLGGANGLVSSTALPGTDPNQKILYTSIYSLNDQIVINSLSRLQGARNIQLYGIGHIGLLSNSQVNGYIKEGLNGGGLNTN",denaturant midpoint (higher = more stable),"Bacillus subtilis, pH 0.8, 25 °C, GdnHCl, CD, KCl-HCl 20 mM, reversible: No",3 M
same,denaturant midpoint (higher = more stable),"Bacillus subtilis, pH 0.8, 25 °C, GdnHCl, Fluorescence, KCl-HCl 20 mM, reversible: No",2.6 M
same,Tm,"Bacillus subtilis, pH 0.8, Thermal, CD, KCl-HCl 20 mM, reversible: No",75 °C
same,Tm,"Bacillus subtilis, pH 4, Thermal, Fluorescence, Sodium acetate 50 mM, reversible: Yes",45 °C
same,unfolding free energy,"Bacillus subtilis, pH 5.8, 25 °C, Urea, Fluorescence, NaAc 20 mM, reversible: Yes",11.2 kcal/mol
same,unfolding free energy,"Bacillus subtilis, pH 5.8, 25 °C, Urea, NMR, NaAc 20 mM, reversible: Yes",9.56 kcal/mol
same,Tm,"Bacillus subtilis, pH 5.8, Thermal, DSC, NaAc 20 mM, reversible: No",53 °C
same,Tm,"Bacillus subtilis, pH 6, Thermal, CD, phosphate buffer 20 mM",54.6 °C
same,denaturant midpoint (higher = more stable),"Bacillus subtilis, pH 7, 25 °C, GdnHCl, CD, Sodium phosphate 20 mM, reversible: Yes",1 M
same,denaturant midpoint (higher = more stable),"Bacillus subtilis, pH 7, 25 °C, GdnHCl, Fluorescence, Sodium phosphate 20 mM, reversible: Yes",0.8 M
same,unfolding free energy,"Bacillus subtilis, pH 7, 25 °C, Urea, Fluorescence, Sodium acetate 50 mM, reversible: Yes",11.4 kcal/mol
same,Tm,"Bacillus subtilis, pH 7, Thermal, CD, Sodium phosphate 20 mM, reversible: No",47 °C
same,unfolding free energy,"Bacillus subtilis, pH 7.2, 25 °C, GdnHCl, CD, Sodium phosphate 50 mM, reversible: Yes",11.4 kcal/mol and 13.8 kcal/mol
"Beta-glucanase wild type, K0A689 (protein) MKRVLLILVTGLFMSLFAVTSTASAQTGGSFFDPFNGYNSGFWQKADGYSNGNMFNCTWRANNVSMTSLGEMRLALTSPSYNKFDCGENRSVQTYGYGLYEVRMKPAKNTGIVSSFFTYTGPTDGTPWDEIDIEFLGKDTTKVQFNYYTNGAGNHEKIVDLGFDAANAYHTYAFDWQPNSIKWYVDGQLKHTATNQIPTTPGKIMMNLWNGTGVDEWLGSYNGVNPLYAHYDWVRYTKK",Tm,"Bacillus tequilensis, pH 6.5, Thermal, Activity, phosphate buffer",62 °C
"Steroid Delta-isomerase wild type, P00947 (protein) MNTPEHMTAVVQRYVAALNAGDLDGIVALFADDATVEDPVGSEPRSGTAAIREFYANSLKLPLAVELTQEVRAVANEAAFAFTVSFEYQGRKTVVAPIDHFRFNGAGKVVSMRALFGEKNIHAGA",denaturant m value,[1],4 kcal/mol/M
same,unfolding free energy,[1],22 kcal/mol
"Rhodopsin wild type, P02699 (protein) MNGTEGPNFYVPFSNKTGVVRSPFEAPQYYLAEPWQFSMLAAYMFLLIMLGFPINFLTLYVTVQHKKLRTPLNYILLNLAVADLFMVFGGFTTTLYTSLHGYFVFGPTGCNLEGFFATLGGEIALWSLVVLAIERYVVVCKPMSNFRFGENHAIMGVAFTWVMALACAAPPLVGWSRYIPEGMQCSCGIDYYTPHEETNNESFVIYMFVVHFIIPLIVIFFCYGQLVFTVKEAAAQQQESATTQKAEKEVTRMVIIMVIAFLICWLPYAGVAFYIFTHQGSDFGPIFMTIPAFFAKTSAVYNPVIYIMMNKQFRNCMVTTLCCGKNPLGDDEASTTVSKTETSQVAPA",Tm,[2],71.7 °C
same,unfolding enthalpy (calorimetric),[2],172 kcal/mol
"Tubulin--tyrosine ligase wild type, P38584 (protein) MYTFVVRDENSSVYAEVSRLLLATGHWKRLRRDNPRFNLMLGERNRLPFGRLGHEPGLMQLVNYYRGADKLCRKASLVKLIKTSPELAESCTWFPESYVIYPTNLKTPVAPAQDGIHPPLHSSRTDEREFFLASYNRKKEEGEGNVWIAKSSAGAKGEGILISSDATELLDFIDNQGQVHVIQKYLERPLLLEPGHRKFDIRSWVLVDHQFNIYLYREGVLRTASEPYHMDNFQDKTCHLTNHCIQKEYSKNYGKYEEGNEMFFEAFNRYLTSALNITLESSILLQIKHIIRSCLMSVEPAISTKHLPYQSFQLFGFDFMVDEELKVWLIEVNGAPACAQKLYAELCQGIVDIAIASVFPPPDAEQQPPQPATFIKL",Tm,[3],54.8 °C
same,unfolding enthalpy (calorimetric),[3],173 kcal/mol
"Alpha-lactalbumin wild type, P00711 (protein) MMSFVSLLLVGILFHATQAEQLTKCEVFRELKDLKGYGGVSLPEWVCTTFHTSGYDTQAIVQNNDSTEYGLFQINNKIWCKDDQNPHSSNICNISCDKFLDDDLTDDIMCVKKILDKVGINYWLAHKALCSEKLDQWLCEKL",denaturant m value,[4],0.33 kcal/mol/M
same,denaturant midpoint (higher = more stable),[4],4.45 M
same,unfolding free energy,[4],1.46 kcal/mol
same,denaturant m value,[5],0.76 kcal/mol/M
same,denaturant midpoint (higher = more stable),[5],3.16 M
same,unfolding free energy,[5],2.41 kcal/mol
same,Tm,[6],29.6 °C
same,heat capacity change of unfolding,[6],0.93 kcal/mol/K
same,unfolding enthalpy (calorimetric),[6],36.1 kcal/mol
same,Tm,[7],56.9 °C
same,heat capacity change of unfolding,[7],1.17 kcal/mol/K
same,unfolding enthalpy (calorimetric),[7],64.5 kcal/mol
same,Tm,[8],62.8 °C
same,heat capacity change of unfolding,[8],1.26 kcal/mol/K
same,unfolding enthalpy (calorimetric),[8],71.9 kcal/mol
same,Tm,[9],51.2 °C
same,heat capacity change of unfolding,[9],1.61 kcal/mol/K
same,unfolding enthalpy (calorimetric),[9],59.1 kcal/mol
same,unfolding enthalpy (van 't Hoff),[9],61.5 kcal/mol
same,denaturant m value,[10],1.85 kcal/mol/M
same,unfolding free energy,[10],4.61 kcal/mol
same,denaturant m value,[11],2.6 kcal/mol/M
same,unfolding free energy,[11],6.21 kcal/mol
same,heat capacity change of unfolding,[12],0.96 kcal/mol/K
same,unfolding enthalpy (van 't Hoff),[12],31.1 kcal/mol
same,unfolding free energy,"Bos taurus, pH 6.65, 25 °C, GdnHCl, CD, potassium phosphate 0.01-0.03 M, KCl 0.1 M, reversible: yes",6.5 kcal/mol
same,heat capacity change of unfolding,"Bos taurus, pH 6.8, 25 °C, Thermal, CD, phosphate 10-20 mM, KCl 0.1 M",1.49 kcal/mol/K
same,denaturant m value,[13],2.27 kcal/mol/M
same,unfolding free energy,[13],3.66 kcal/mol
same,denaturant m value,"Bos taurus, pH 7, 25 °C, GdnHCl, CD, sodium cacodylate 50 mM, NaCl 50 mM, transition: 3",1.79 kcal/mol/M and 0.64 kcal/mol/M
same,denaturant m value,[14],2.43 kcal/mol/M
same,unfolding free energy,[14],7.29 kcal/mol
same,Tm,[15],25 °C
same,heat capacity change of unfolding,[15],1.1 kcal/mol/K
same,unfolding enthalpy (van 't Hoff),[15],38 kcal/mol
same,Tm,[16],64.2 °C
same,unfolding enthalpy (calorimetric),[16],72.2 kcal/mol
same,denaturant m value,[17],0.84 kcal/mol/M
same,denaturant midpoint (higher = more stable),[17],2.46 M
same,unfolding free energy,[17],2.07 kcal/mol
same,heat capacity change of unfolding,[18],1.18 kcal/mol/K
same,unfolding enthalpy (van 't Hoff),[18],44.7 kcal/mol
same,heat capacity change of unfolding,[19],1.03 kcal/mol/K
same,unfolding free energy,[19],5.02 kcal/mol and 3.59 kcal/mol
same,Tm,[20],28.2 °C
same,heat capacity change of unfolding,[20],1.48 kcal/mol/K
same,unfolding enthalpy (calorimetric),[20],35.2 kcal/mol
same,Tm,[21],55.2 °C
same,unfolding enthalpy (calorimetric),[21],55 kcal/mol
same,Tm,[22],71.3 °C
same,heat capacity change of unfolding,[22],1.6 kcal/mol/K
same,unfolding enthalpy (calorimetric),[22],80 kcal/mol
same,unfolding enthalpy (van 't Hoff),[22],84 kcal/mol
"Alpha-crystallin A chain wild type, P02470 (protein) MDIAIQHPWFKRTLGPFYPSRLFDQFFGEGLFEYDLLPFLSSTISPYYRQSLFRTVLDSGISEVRSDRDKFVIFLDVKHFSPEDLTVKVQEDFVEIHGKHNERQDDHGYISREFHRRYRLPSNVDQSALSCSLSADGMLTFSGPKIPSGVDAGHSERAIPVSREEKPSSAPSS",unfolding free energy,"Bos taurus, pH 5, 20 °C, Urea, Fluorescence, Sodium acetate 50 mM",8.46 kcal/mol
same,Tm,[23],45.6 °C
same,unfolding enthalpy (calorimetric),[23],98 kcal/mol
same,unfolding enthalpy (van 't Hoff),[23],91 kcal/mol
same,Tm,[24],59.8 °C
same,heat capacity change of unfolding,[24],1.36 kcal/mol/K
same,unfolding enthalpy (calorimetric),[24],80.3 kcal/mol
same,unfolding enthalpy (van 't Hoff),[24],78.6 kcal/mol
"Phosphocarrier protein HPr wild type, P08877 (protein) MAQKTFKVTADSGIHARPATVLVQTASKYDADVNLEYNGKTVNLKSIMGVMSLGIAKGAEITISASGADENDALNALEETMKSEGLGE",denaturant midpoint (higher = more stable),"Bacillus subtilis (strain 168), pH 7, 30 °C, Urea, CD, Potassium phosphate 50 mM, reversible: yes",3.93 M
same,Tm,[25],73.6 °C and 77.5 °C
same,unfolding enthalpy (van 't Hoff),[25],59 kcal/mol and 63 kcal/mol
"NADP-dependent isopropanol dehydrogenase wild type, P25984 (protein) MKGFAMLGINKLGWIEKERPVAGSYDAIVRPLAVSPCTSDIHTVFEGALGDRKNMILGHEAVGEVVEVGSEVKDFKPGDRVIVPCTTPDWRSLEVQAGFQQHSNGMLAGWKFSNFKDGVFGEYFHVNDADMNLAILPKDMPLENAVMITDMMTTGFHGAELADIQMGSSVVVIGIGAVGLMGIAGAKLRGAGRIIGVGSRPICVEAAKFYGATDILNYKNGHIVDQVMKLTNGKGVDRVIMAGGGSETLSQAVSMVKPGGIISNINYHGSGDALLIPRVEWGCGMAHKTIKGGLCPGGRLRAEMLRDMVVYNRVDLSKLVTHVYHGFDHIEEALLLMKDKPKDLIKAVVIL",Tm,"Clostridium beijerinckii, pH 6.8, Thermal, CD, Na/K phosphate 50 mM",65.1 °C
"Ribonuclease pancreatic wild type, P61823 (protein) MALKSLVLLSLLVLVLLLVRVQPSLGKETAAAKFERQHMDSSTSAASSSNYCNQMMKSRNLTKDRCKPVNTFVHESLADVQAVCSQKNVACKNGQTNCYQSYSTMSITDCRETGSSKYPNCAYKTTQANKHIIVACEGNPYVPVHFDASV",Tm,[26],47.7 °C
same,heat capacity change of unfolding,[26],2 kcal/mol/K
same,unfolding enthalpy (calorimetric),[26],107 kcal/mol
"Malate dehydrogenase wild type, P80040 (protein) MRKKISIIGAGFVGSTTAHWLAAKELGDIVLLDFVEGVPQGKALDLYEASPIEGFDVRVTGTNNYADTANSDVIVVTSGAPRKPGMSREDLIKVNADITRACISQAAPLSPNAVIIMVNNPLDAMTYLAAEVSGFPKERVIGQAGVLDAARYRTFIAMEAGVSVEDVQAMLMGGHGDEMVPLPRFSTISGIPVSEFIAPDRLAQIVERTRKGGGEIVNLLKTGSAYYAPAAATAQMVEAVLKDKKRVMPVAAYLTGQYGLNDIYFGVPVILGAGGVEKILELPLNEEEMALLNASAKAVRATLDTLKSL",Tm,"Chloroflexus aurantiacus (strain ATCC 29366 / DSM 635 / J-10-fl), pH 7.5, Thermal, CD, potassium phosphate 10 mM, reversible: No",67.8 °C
